Test results from patent publication US20140348819A1, “Methods of Treating Cancer” (Dana-Farber Cancer Institute, Inc., priority 2011, published 2014).

Test system: six V600E BRAF melanoma cell lines
Experiment: Screening of recombinant RTK ligands for ability to confer resistance to BRAFi (PLX4720) or MEKi (PD184352) (Table 4)
Assay type: cell-based, human
Design: ability of recombinant RTK ligand to confer resistance / ability of recombinant RTK ligand to confer resistance (screening value): scale not given here
Method in brief: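 Resistance to BRAFi (PLX4720) or MEKi (PD184352) was tested in six V600E BRAF melanoma lines given one of 22 recombinant RTK ligands. For a subset of RTKs, activation was checked by high-throughput tyrosine kinase phosphorylation profiling and western blot.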

B1: Gas6 (protein, UniProt Q14393 31-678, looked up)
Growth arrest-specific …: ALLPAREATQFLRPRQRRAFQVFEEAKQGHLERECVEELCSREEAREVFENDPETDYFYPRYLDCINKYGSPYTKNSGFATCVQNLPDQCTPNPCDRKGTQACQDLMGNFFCLCKAGWGGRLCDKDVNECSQENGGCLQICHNKPGSFHCSCHSGFELSSDGRTCQDIDECADSEACGEARCKNLPGSYSCLCDEGFAYSSQEKACRDVDECLQGRCEQVCVNSPGSYTCHCDGRGGLKLSQDMDTCEDILPCVPFSVAKSVKSLYLGRMFSGTPVIRLRFKRLQPTRLVAEFDFRTFDPEGILLFAGGHQDSTWIVLALRAGRLELQLRYNGVGRVTSSGPVINHGMWQTISVEELARNLVIKVNRDAVMKIAVAGDLFQPERGLYHLNLTVGGIPFHEKDLVQPINPRLDGCMRSWNWLNGEDTTIQETVKVNTRMQCFSVTERGSFYPGSGFAFYSLDYMRTPLDVGTESTWEVEVVAHIRPAADTGVLFALWAPDLRAVPLSVALVDYHSTKKLKKQLVVLAVEHTALALMEIKVCDGQEHVVTVSLRDGEATLEVDGTRGQSEVSAAQLQERLAVLERHLRSPVLTFAGGLPDVPVTSAPVTAFYRGCMTLEVNRRLLDLDEAAYKHSDITAHSCPPVEPAAA
ability of recombinant RTK ligand to confer resistance (A2058, PD184352 - 1 uM, ligand 6.25 ng/ml): 0.99
ability of recombinant RTK ligand to confer resistance (A2058, PD184352 - 1 uM, ligand 25 ng/ml): 0.97
ability of recombinant RTK ligand to confer resistance (A2058, PD184352 - 1 uM, ligand 100 ng/ml): 1.02
ability of recombinant RTK ligand to confer resistance (A2058, PD184352 - 1 uM, ligand 400 ng/ml): 0.97
ability of recombinant RTK ligand to confer resistance (A2058, PD184352 - 1 uM, ligand 1600 ng/ml): 0.95
ability of recombinant RTK ligand to confer resistance (A2058, PLX4720 - 2 uM, ligand 6.25 ng/ml): 1.01
ability of recombinant RTK ligand to confer resistance (A2058, PLX4720 - 2 uM, ligand 25 ng/ml): 1.00
ability of recombinant RTK ligand to confer resistance (A2058, PLX4720 - 2 uM, ligand 100 ng/ml): 0.98
ability of recombinant RTK ligand to confer resistance (A2058, PLX4720 - 2 uM, ligand 400 ng/ml): 0.98
ability of recombinant RTK ligand to confer resistance (A2058, PLX4720 - 2 uM, ligand 1600 ng/ml): 0.97
ability of recombinant RTK ligand to confer resistance (C32, PD184352 - 1 uM, ligand 6.25 ng/ml): 1.02
ability of recombinant RTK ligand to confer resistance (C32, PD184352 - 1 uM, ligand 25 ng/ml): 1.01
ability of recombinant RTK ligand to confer resistance (C32, PD184352 - 1 uM, ligand 100 ng/ml): 1.01
ability of recombinant RTK ligand to confer resistance (C32, PD184352 - 1 uM, ligand 400 ng/ml): 1.15
ability of recombinant RTK ligand to confer resistance (C32, PD184352 - 1 uM, ligand 1600 ng/ml): 0.91
ability of recombinant RTK ligand to confer resistance (C32, PLX4720 - 2 uM, ligand 6.25 ng/ml): 1.05
ability of recombinant RTK ligand to confer resistance (C32, PLX4720 - 2 uM, ligand 25 ng/ml): 0.89
ability of recombinant RTK ligand to confer resistance (C32, PLX4720 - 2 uM, ligand 100 ng/ml): 1.00
ability of recombinant RTK ligand to confer resistance (C32, PLX4720 - 2 uM, ligand 400 ng/ml): 1.05
ability of recombinant RTK ligand to confer resistance (C32, PLX4720 - 2 uM, ligand 1600 ng/ml): 0.95
ability of recombinant RTK ligand to confer resistance (Colo 829, PD184352 - 1 uM, ligand 6.25 ng/ml): 0.98
ability of recombinant RTK ligand to confer resistance (Colo 829, PD184352 - 1 uM, ligand 25 ng/ml): 1.01
ability of recombinant RTK ligand to confer resistance (Colo 829, PD184352 - 1 uM, ligand 100 ng/ml): 0.98
ability of recombinant RTK ligand to confer resistance (Colo 829, PD184352 - 1 uM, ligand 400 ng/ml): 0.99
ability of recombinant RTK ligand to confer resistance (Colo 829, PD184352 - 1 uM, ligand 1600 ng/ml): 1.02
ability of recombinant RTK ligand to confer resistance (Colo 829, PLX4720 - 2 uM, ligand 6.25 ng/ml): 0.97
ability of recombinant RTK ligand to confer resistance (Colo 829, PLX4720 - 2 uM, ligand 25 ng/ml): 1.02
ability of recombinant RTK ligand to confer resistance (Colo 829, PLX4720 - 2 uM, ligand 100 ng/ml): 0.94
ability of recombinant RTK ligand to confer resistance (Colo 829, PLX4720 - 2 uM, ligand 400 ng/ml): 0.99
ability of recombinant RTK ligand to confer resistance (Colo 829, PLX4720 - 2 uM, ligand 1600 ng/ml): 1.03
ability of recombinant RTK ligand to confer resistance (G-361, PD184352 - 1 uM, ligand 6.25 ng/ml): 1.03
ability of recombinant RTK ligand to confer resistance (G-361, PD184352 - 1 uM, ligand 25 ng/ml): 1.00
ability of recombinant RTK ligand to confer resistance (G-361, PD184352 - 1 uM, ligand 100 ng/ml): 0.91
ability of recombinant RTK ligand to confer resistance (G-361, PD184352 - 1 uM, ligand 400 ng/ml): 0.94
ability of recombinant RTK ligand to confer resistance (G-361, PD184352 - 1 uM, ligand 1600 ng/ml): 0.88
ability of recombinant RTK ligand to confer resistance (G-361, PLX4720 - 2 uM, ligand 6.25 ng/ml): 0.97
ability of recombinant RTK ligand to confer resistance (G-361, PLX4720 - 2 uM, ligand 25 ng/ml): 0.95
ability of recombinant RTK ligand to confer resistance (G-361, PLX4720 - 2 uM, ligand 100 ng/ml): 0.98
ability of recombinant RTK ligand to confer resistance (G-361, PLX4720 - 2 uM, ligand 400 ng/ml): 0.97
ability of recombinant RTK ligand to confer resistance (G-361, PLX4720 - 2 uM, ligand 1600 ng/ml): 0.85
ability of recombinant RTK ligand to confer resistance (SK-MEL-5, PD184352 - 1 uM, ligand 6.25 ng/ml): 0.99
ability of recombinant RTK ligand to confer resistance (SK-MEL-5, PD184352 - 1 uM, ligand 25 ng/ml): 1.01
ability of recombinant RTK ligand to confer resistance (SK-MEL-5, PD184352 - 1 uM, ligand 100 ng/ml): 0.97
ability of recombinant RTK ligand to confer resistance (SK-MEL-5, PD184352 - 1 uM, ligand 400 ng/ml): 0.89
ability of recombinant RTK ligand to confer resistance (SK-MEL-5, PD184352 - 1 uM, ligand 1600 ng/ml): 0.94
ability of recombinant RTK ligand to confer resistance (SK-MEL-5, PLX4720 - 2 uM, ligand 6.25 ng/ml): 0.98
ability of recombinant RTK ligand to confer resistance (SK-MEL-5, PLX4720 - 2 uM, ligand 25 ng/ml): 1.00
ability of recombinant RTK ligand to confer resistance (SK-MEL-5, PLX4720 - 2 uM, ligand 100 ng/ml): 1.03
ability of recombinant RTK ligand to confer resistance (SK-MEL-5, PLX4720 - 2 uM, ligand 400 ng/ml): 1.05
ability of recombinant RTK ligand to confer resistance (SK-MEL-5, PLX4720 - 2 uM, ligand 1600 ng/ml): 0.97
ability of recombinant RTK ligand to confer resistance (SK-MEL-28, PD184352 - 1 uM, ligand 6.25 ng/ml): 1.03
ability of recombinant RTK ligand to confer resistance (SK-MEL-28, PD184352 - 1 uM, ligand 25 ng/ml): 0.87
ability of recombinant RTK ligand to confer resistance (SK-MEL-28, PD184352 - 1 uM, ligand 100 ng/ml): 1.00
ability of recombinant RTK ligand to confer resistance (SK-MEL-28, PD184352 - 1 uM, ligand 400 ng/ml): 1.01
ability of recombinant RTK ligand to confer resistance (SK-MEL-28, PD184352 - 1 uM, ligand 1600 ng/ml): 1.14
ability of recombinant RTK ligand to confer resistance (SK-MEL-28, PLX4720 - 2 uM, ligand 6.25 ng/ml): 1.13
ability of recombinant RTK ligand to confer resistance (SK-MEL-28, PLX4720 - 2 uM, ligand 25 ng/ml): 0.96
ability of recombinant RTK ligand to confer resistance (SK-MEL-28, PLX4720 - 2 uM, ligand 100 ng/ml): 1.04
ability of recombinant RTK ligand to confer resistance (SK-MEL-28, PLX4720 - 2 uM, ligand 400 ng/ml): 1.08
ability of recombinant RTK ligand to confer resistance (SK-MEL-28, PLX4720 - 2 uM, ligand 1600 ng/ml): 1.22
